Results reported in patent publication US20110280888A1.

What was measured:
[1] = target: carbohydrate containing epitope on CD43 and/or CEA as expressed on COLO 205 colorectal cancer cells; experiment: flow cytometry on Colo 205 cells, secondary antibody alone
[2] = target: carbohydrate containing epitope on CD43 and/or CEA as expressed on SU.86.86 pancreatic cancer cells; experiment: flow cytometry on SU.86.86 cells, secondary antibody alone at 1 ug/ml
[3] = target: carbohydrate containing epitope on CD43 and/or CEA as expressed on COLO 205 colorectal cancer cells; experiment: flow cytometry on Colo 205 cells, antibody at 1 ug/ml, R-PE secondary
[4] = target: carbohydrate containing epitope on CD43 and/or CEA as expressed on COLO 205 colorectal cancer cells; experiment: flow cytometry on Colo 205 cells, control antibody
[5] = target: carbohydrate containing epitope on CD43 and/or CEA as expressed on SU.86.86 pancreatic cancer cells; experiment: cell-based or functional assay
[6] = target: carbohydrate containing epitope on CD43 and/or CEA as expressed on COLO 205 colorectal cancer cells; experiment: flow cytometry on Colo 205 cells, antibody at 1 ug/ml, R-PE anti-mouse secondary
[7] = target: carbohydrate containing epitope on CD43 and/or CEA as expressed on SU.86.86 pancreatic cancer cells; experiment: flow cytometry on SU.86.86 cells, antibody at 1 ug/ml, R-PE anti-mouse secondary

Molecule: R-PE-conjugated goat F(ab')2 anti-mouse IgG(H+L), Southern Biotech, Cat. No.1032-09 (antibody)
- background signal (MFI) [1]: 3 MFI
- MFI [2]: 6 MFI

Molecule: R-PE-conjugated goat anti-human IgG, Southern Biotech, Cat. No.2040-09 (antibody)
- background signal (MFI) [1]: 3 MFI

Molecule: hIgG1 (control antibody of Table 10)
- Median Fluorescence Intensity (MFI) [3]: 6 MFI

Molecule: human IgG (control antibody of FIG. 3)
- background signal (MFI) [4]: 5 MFI

Molecule: mIgG3 (control antibody of Table 10)
- Median Fluorescence Intensity (MFI) [3]: 7 MFI

Molecule: mouse IgG (control antibody of FIG. 3)
- background signal (MFI) [4]: 4 MFI

B1: murine 5F1 antibody (m5F1) (antibody, V domains shown)
VH: EVQLQQSGPELVKPGASVRMSCTASGYTFTSYVMHWIKQKPGQGLDWIGYINPYNGGTQYNEKFKGKATLTSDKSSSTAYMELSSLTSEDSAVYYCARRTFPYYFDYWGQGTTLTVSS
VL: DVLMTQTPLSLPVSLGDQASISCRSSQSILHSNGNTYLEWYLQKPGQSPKLLIYKVSNRFSGVPDRFSGSGSGTDFTLKISRVEAEDLGVYYCFQGSHAPLTFGAGTKLELK
- % of Annexin V and/or PI positive cells, SU.86.86 cells, 6 h, m5F1 at 2 ug/ml [5]: 60%
- % of Annexin V and/or PI positive cells, SU.86.86 cells, 6 h, m5F1 at 4 ug/ml [5]: 72%
- % of Annexin V and/or PI positive cells, SU.86.86 cells, 6 h, m5F1 at 8 ug/ml [5]: 78%
- % of Annexin V and/or PI positive cells, SU.86.86 cells, 6 h, m5F1 at 16 ug/ml [5]: 89%
- % of Annexin V and/or PI positive cells, SU.86.86 cells, 6 h, m5F1 at 32 ug/ml [5]: 91%
- Median Fluorescence Intensity (MFI) [6]: 800 MFI
- MFI [7]: 131 MFI
